The record followed here is PMC12167477, “Setdb1 and Atf7IP form a hetero-trimeric complex that blocks Setdb1 nuclear export” (The Journal of Biological Chemistry, 2025).

First the molecules themselves.
B4: biotinylated Avitag-MBP-Atf7IP(574-666) (domain or fragment, human, UniProt Q6VMQ6 574-666, looked up)
chain: EEEYEAEFQVKITAKGDINQKLQKVIQWLLEEKLCALQCAVFDKTLAELKTRVEKIECNKRHKTVLTELQAKIARLTKRFEAAKEDLKKRHEH
modifications: biotin on the AviTag (cultures supplemented with 40 uM biotin, birA co-expressed)
notes: The methods describe only the Avitag-MBP form as purified on its own; also called MBP-Atf71P; source: E. coli, co-expressed with birA and biotin, purified (MBPTrap, Superdex 200); not shown: AviTag, N-terminal, kept; MBP, N-terminal, kept

In data set [1] the target is B4. The experiment in a line: AlphaScreen or HTRF; AlphaScreen His-Detection kit: nickel chelate acceptor beads and streptavidin donor beads; both proteins at 20 nM, or one at 20 nM and the other 0 to 20 nM; 50 mM MOPS, 50 mM CHAPS, 50 mM NaF, 100 ug/ml BSA, pH 7; room temperature; triplicates. The following applies: both partners purified. Background: Alpha assays give light when donor and acceptor beads are brought close together.

In data set [2] the target is T1, MBP-Setdb1(2-115) (human, UniProt Q15047 2-115).
T1 construct: The methods list the MBP tag of the vectors as AviTag-Mbp; also called MBP-Setdb1(2-114); not shown: MBP, N-terminal, kept
Briefly: pull-down; three tagged proteins co-expressed in E. coli, complex purified sequentially by the his tag and then the strep tag; SDS-PAGE. The following applies: partners not purified.

In data set [3] the target is T2, GST-Setdb1(2-115) (human, UniProt Q15047 2-115).
T2 construct: source: E. coli, purified (GSTTrap, Superdex 200); not shown: GST, N-terminal, kept
The experiment in a line: pull-down; 0.5 uM GST-fusion immobilised on glutathione Sepharose beads; 1.5 uM hCrm1 with or without 4.5 uM RanGTP; with or without pre-incubation with MBP-Atf7IP(574-666) (3-fold or 15-fold excess); 20 mM HEPES 7.4, 110 mM potassium acetate, 2 mM magnesium acetate, 10% glycerol, 2 mM DTT, 0.005% Tween20; Coomassie SDS-PAGE. As to conditions: both partners purified.

In data set [4] the target is T3, his-sumo-Setdb1(2-115) (human, UniProt Q15047 2-115).
T3 construct: also called his-sumo-Setdb1(2-114); source: E. coli (BL21DE3 or Rosetta2), purified (HisTrap, dialysis); not shown: His6, N-terminal, kept; SUMO, N-terminal, kept
The experiment in a line: AlphaScreen or HTRF; AlphaScreen His-Detection kit: nickel chelate acceptor beads and streptavidin donor beads; both proteins at 20 nM, or one at 20 nM and the other 0 to 20 nM; 50 mM MOPS, 50 mM CHAPS, 50 mM NaF, 100 ug/ml BSA, pH 7; room temperature; triplicates. As to conditions: both partners purified.

Data set [5] deals with the molecule itself. The experiment in a line: SEC; gel filtration of isolated MBP-Atf7IP(574-666) with and without Tween 20 in the buffer. On the technique in general: SEC sorts molecules by how far they enter the pores of the column.
Data set [6] concerns the molecule itself. Briefly: native MS; co-expressed and purified MBP-Setdb1(2-115)/his-sumo-Atf7IP(574-666) complex, 500 nM, 400 mM ammonium acetate pH 7.9, 1 mM DTT; Q Exactive UHMR; HCD fragmentation.
Data set [7] deals with T1, MBP-Setdb1(2-115). Briefly: SEC-MALS; co-expressed and purified complex, about 400 ul at about 1 mg/ml, Superdex 200 Increase 10/300. As to conditions: both partners purified.
Data set [8] deals with the molecule itself. The experiment in a line: cross-linking; disulfide cross-linking of MBP-Atf7IP(574-666) with only C631, in isolation; SDS-PAGE with and without BME.

B1: his-sumo-Setdb1(Δα1-α2; residues 50-115) (domain or fragment, human, UniProt Q15047 50-115, looked up)
chain: KMDCVQQRKKQLAELETWVIQKESEVAHVDQLFDDASRAVTNCESLVKDFYSKLGLQYRDSSSEDE
notes: source: E. coli, purified (HisTrap, dialysis); not shown: His6, N-terminal, kept; SUMO, N-terminal, kept
Consider B1, for which the “binding, percent of WT” value in data set [1] is ~30 % of WT.

B2: Atf7IP2(297-388), his-sumo- or Strep-tagged (domain or fragment, UniProt Q5U623 297-388, looked up)
chain: MKTSEQINENICVSLERQTAFLEQVRHLIQQEIYSINYELFDKKLKELNQRIGKTECRNKHEGIADKLLAKIAKLQRRIKTVLLFQRNCLKP
notes: Atf7IP2, coiled coil region, residues 297-388; Two differently tagged copies of one fragment, written as one molecule; in the mixed trimer with Atf7IP only the Strep-tagged copy was there; also called his-sumo-Atf7IP2(297-388); Strep-Atf7IP2(297-388); not shown: His6-SUMO (one copy) or Strep (the other copy), N-terminal, kept
Broadly, the stoichiometry N is a count of units in the complex or per binding partner. Turning to B2, in data set [2], the “stoichiometry N” value was 2 Atf7IP2 per Setdb1.

B3: his-sumo-Setdb1(Δα1; residues 35-115) (domain or fragment, human, UniProt Q15047 35-115, looked up)
chain: ISMEELRHFIDEELEKMDCVQQRKKQLAELETWVIQKESEVAHVDQLFDDASRAVTNCESLVKDFYSKLGLQYRDSSSEDE
notes: as for B1
Turning to B3, the “binding, percent of WT” value in data set [1] was ~80 % of WT.

For the molecule B4, the binding result in data set [3], in data set [4] and in data set [5] was “binds” each time.

B5: his-sumo-Atf7IP(574-666) (domain or fragment, human, UniProt Q6VMQ6 574-666, looked up)
chain: EEEYEAEFQVKITAKGDINQKLQKVIQWLLEEKLCALQCAVFDKTLAELKTRVEKIECNKRHKTVLTELQAKIARLTKRFEAAKEDLKKRHEH
notes: not shown: His6, N-terminal, kept; SUMO, N-terminal, kept
For B5, the binding result in data set [6] is “binds”. The “stoichiometry N” value in data set [7] stood at 2 Atf7IP per Setdb1.

B6: MBP-Atf7IP(574-666) C608S C612S (domain or fragment, human, UniProt Q6VMQ6 574-666, looked up)
chain: EEEYEAEFQVKITAKGDINQKLQKVIQWLLEEKLSALQSAVFDKTLAELKTRVEKIECNKRHKTVLTELQAKIARLTKRFEAAKEDLKKRHEH
notes: The methods name the synthesised vector without the MBP tag on Atf7IP; the results call the protein MBP-Atf7IP; also called Atf7IP(C631); source: also used in isolation; not shown: MBP, N-terminal, kept
Consider B6, for which the binding result in data set [8] is on record as “binds”.
